In test [1] the test system is cell surface LRP1 and CRT on PEMs. The experiment in a line: Macrophage cell surface CRT and LRP1 by FACS. The class given is cell-based, mouse. The note with it: after treatment with phagocytic activation factor. Here is the method: FIGS. 6A-6D include data related to our investigation of possible phagocytic receptors on macrophages for phagocytosing healthy self-cells. […] PEM (unstimulated) phagocytosis toward apoptotic B16 cells was tested in the presence of same antibodies and RAP as in A. Error bars are ±SEM. ***P<0.001 vs. phagocytosis in the presence of control IgG. […] PEMs, with or without (ctl.) treatment with LPS, IL-17, IL-6, or PMA, were labeled for cell surface LRP1 and CRT followed by FACS. Increased and decreased expressions were marked by arrows. […] Activated PEM phagocytosis toward RBCs was tested in the presence of antibodies against SR-A, Fc receptor Cd16/32 (10 μg/mL of each), inhibitors against SR-B (BLT1, 5 μM), dectin (laminarin, 100 μg/mL), complement (heparin, 40 U/mL), and antibody against Cd11b (10 μg/mL). Error bars are ±SEM. ***P<0.001 vs. the respective control without inhibition. Data presented in each panel represent at least three independent experiments with n≥4, if applicable.
For orientation: A flow cytometer gives signals particle by particle.

Test [2] deals with SIRPα. The note with it: following LPS stimulation; cited from earlier work.
Test [3] concerns CFSE-labeled CD47^+ or CD47^− RBCs in recipient mice. The experiment in a line: RBC adoptive transfer and in vivo clearance of CFSE-labeled RBCs. The arrangement: species or system mouse. The note with it: 24 h. The source says: FIGS. 2A-2E includes data related to macrophage phagocytosis in vivo assessed by adoptive transfer experiments. FIGS. 2A-C are illustrative graphs showing clearance of adoptively transferred CD47-positive (Cd47^+) or CD47-negative (Cd47^−) RBC in recipient mice. […] Error bars are ±SEM. **P<0.01, ***P<0.001 vs. WT mice clearance of Cd47^+ RBCs. […] Mice treated with DSS (1% for SIRPα^−/− mice, 2% for WT and Cd47^−/− mice) for 8 d (d8) were transfused with CFSE-RBCs followed by determination of RBC clearance after 24 h. FACS data of Cd47^+ RBCs and Cd47^− RBCs in different mice at 30 min and 24 h after transfer were selectively shown. Total RBC phagocytosis was calculated based on the rates of CFSE-RBC clearance and the fact that SIRPα^−/− mice eliminate both Cd47^− RBC and Cd47^+ RBC, whereas WT mice and Cd47^−/− mice eliminate only Cd47^− RBCs. […] Mice treated once with IL-17 (10 μg/kg, i.v.) were transfused with CFSE-labeled Cd47^+ or Cd47^− RBCs a day later. Error bars are ±SEM. **P<0.01, ***P<0.001 vs. control or the initial time point. Data presented in each panel represent at least three independent experiments with n≥4, if applicable.
Adoptive transfer and in vivo clearance: CD47-expressing (CD47^+) RBC freshly collected from WT or SIRPα^−/− mice, and CD47-null (CD47^−) RBC collected from CD47^−/− mice were labeled with carboxyfluorescein succinimidyl ester (CFSE). After washing, about 1×10^9 RBC suspended in 200 μl sterile PBS were transfused into recipient mice by intravenous (i.v.) injection. Blood samples (5 μl) were then collected 30 min after the blood transfusion and the CFSE-labeled RBC in the circulation was assessed by FACS analyses. Blood samples (5 μl each) were then collected at later time points to assess the clearance of CFSE-labeled RBC as compared to that found at 30 min. For each sample, at least 50,000 RBC were examined by FACS. […] Clearance of CFSE-labeled cells in the circulation and the spleen were analyzed by FACS analyses of blood samples and splenocytes. […]

Test [4] relates to B16 melanoma. The experiment in a line: B16 melanoma pulmonary metastases model. The class given is in vivo, mouse. The note with it: SIRPα^−/− mice. Here is the method:
Mouse models of B16 melanoma: B16-F10 melanoma cells (American Type Culture Collection) were cultured in DMEM with 8% FBS. B16 melanoma pulmonary metastases were established by intravenous (i.v.) injection of B16 cells (5×10^5, >95% viability) suspended in 100 μl PBS through the tail vein. The mice were allowed to live to reach humane endpoints or sacrificed on day 15 post B16 inoculation for analyses of melanoma formation in the lungs and other organs. To test macrophage eradication of B16 in vivo, recombinant murine IL-17 (20 μg) was given a day after the B16 implantation and then again two additional administrations three and six days later (total 3 administrations). For SIRPα^−/− mice survived first B16 injection, B16 cells (5×10^5) were injected (i.v.) once again three months without further IL-17 administration. […] For serum treatment, WT mice with B16 inoculation were given serum samples (150 μl, every three days, 3×) derived from control mice or B16-eradicated SIRPα^−/− mice. In other experiments, 2×10^7 splenocytes from control mice or B16-eradicated SIRPα^−/− mice were transferred into WT mice. After 10 days, B16 cells were inoculated into the recipient mice and melanoma development was examined.

Consider lipopolysaccharide [LPS], for which, in test [1], the “cell surface CRT or LRP1 on PEMs” value is given as “induced an increase in CRT”. Further, the “SIRPα expression in macrophages” value in test [2] was “decreased”.

B1: IL-17: recombinant murine cytokine interleukin IL-17 (also known as IL-17A), PeproTech (protein, UniProt Q62386 26-158, looked up)
Interleukin-17A: AAIIPQSSACPNTEAKDFLQNVKVNLKVFNSLGAKVSSRRPSDYLNRSTSPWTLHRNEDPDRYPSVIWEAQCRHQRCVNAEGKLDHHMNSVLIQQEILVLKREPESCPFTFRVEKMLVGVGCTCVASIVRQAA
On to B1, for which the “clearance of transferred CD47^+ and CD47^− RBCs” value in test [3] (SIRPα^−/− mice, 1% DSS for 8 d or directly injected with IL-17) is on record as around 50%. Moreover, in test [3] (mutant mice treated with IL-17 multiple times and a longer period (d1 and d3)), the “clearance of transferred RBCs” value is below 5%. Besides, the B16 melanoma entry in test [4] is “eliminated B16 melanoma”.

Values taken from US11026972B2, “Methods for generating macrophages with enhanced cancer phagocytosis” (Georgia State University Research Foundation, Inc., priority 2016, dated 2021).
